*1 amine or outer side, *2 acyl side, *3 side chain or, on linkers, in order; H or OH if unused. Where no end group is shown, it is not given here. Side-chain parts run from the residue outwards. [ ]: non-standard residue; d: D form. The star is where a group is joined. C18 diacid = O=C(O)CCCCCCCCCCCCCCCCC(=O)*; γGlu = O=C(O)[C@H](CCC(=O)[*:2])N[*:1]; εLys = N[C@@H](CCCCN[*:1])C(=O)[*:2]; Aib = CC(C)(N)C(=O)O
T1: human GIP receptor (human, UniProt P48546 22-466)
T1 sequence (looked up): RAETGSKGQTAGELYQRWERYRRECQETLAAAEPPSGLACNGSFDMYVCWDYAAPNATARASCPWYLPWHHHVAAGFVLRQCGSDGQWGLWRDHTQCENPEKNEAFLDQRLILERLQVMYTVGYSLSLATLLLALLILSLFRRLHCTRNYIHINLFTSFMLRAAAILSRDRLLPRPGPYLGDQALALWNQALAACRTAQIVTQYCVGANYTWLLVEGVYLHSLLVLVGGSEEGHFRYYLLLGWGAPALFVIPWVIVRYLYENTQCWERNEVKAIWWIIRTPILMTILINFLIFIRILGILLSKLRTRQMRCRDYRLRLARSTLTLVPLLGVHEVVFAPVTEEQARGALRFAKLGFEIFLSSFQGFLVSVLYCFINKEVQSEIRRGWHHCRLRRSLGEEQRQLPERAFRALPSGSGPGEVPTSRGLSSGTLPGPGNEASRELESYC

T2: human neuropeptide Y2 receptor (human, UniProt P49146 1-381)
T2 sequence (looked up): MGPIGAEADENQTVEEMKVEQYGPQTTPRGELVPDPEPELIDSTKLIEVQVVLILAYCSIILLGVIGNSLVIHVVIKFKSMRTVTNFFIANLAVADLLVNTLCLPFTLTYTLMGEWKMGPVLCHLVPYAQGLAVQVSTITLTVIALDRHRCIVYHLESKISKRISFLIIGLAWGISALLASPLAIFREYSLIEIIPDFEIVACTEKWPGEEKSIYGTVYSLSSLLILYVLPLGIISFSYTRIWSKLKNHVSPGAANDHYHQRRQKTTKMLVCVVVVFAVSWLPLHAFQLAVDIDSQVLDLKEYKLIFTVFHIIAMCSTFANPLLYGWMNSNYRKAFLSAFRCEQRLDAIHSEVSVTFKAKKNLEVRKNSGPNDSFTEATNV


Assays:
human GIP receptor = target: T1, human GIP receptor; experiment: cell-based or functional assay
[1] = target: T2, human neuropeptide Y2 receptor; experiment: cell-based or functional assay

Binder	EC50, CreLuc reporter, 100% hP (human GIP receptor)	EC50, CreLuc reporter, 0.5% hP [1]	EC50, CreLuc reporter, 0.5% hP (human GIP receptor)	EC50, CreLuc reporter, 100% hP [1]
YXEGTFTSDYSIXLEKQAQXAFVRHLINKXTRQRY (Aib at 2, 13, 20, 30; NMeQ at 33; Lys29 epsilon-amino acylated with C18DA-gGlu-gGlu-gGlu-gGlu-gGlu-gGlu-eLys; C-terminal amide) [Compound 17]	2 nM	29.4 nM	–	–
YXEGTFTSDYSIXLEKQAQXAFIRHLINKXTRQRY (Aib at 2, 20, 30; aMeL at 13; Lys29 epsilon-amino acylated with C20DA-gGlu-gGlu-gGlu-gGlu-gGlu-gGlu-eLys; C-terminal amide) [Compound 53]	1.7 nM	–	0.1 nM	–
YXEGTFTSDLSIXLEKQAQXAFVRHLINKXTRQRY (Aib at 2, 13, 20, 30; Lys29 epsilon-amino acylated with C20DA-gGlu-gGlu-gGlu-gGlu-gGlu-gGlu-eLys; C-terminal amide) [Compound 20]	–	–	0.4 nM	–
YXEGTFTSDFSIXLEKQAQXAFVRHLINKXTRQRY (Aib at 2, 13, 20, 30; Lys29 epsilon-amino acylated with C20DA-gGlu-gGlu-gGlu-gGlu-gGlu-gGlu-eLys; C-terminal amide) [Compound 15]	–	–	0.6 nM	–
YXEGTFTSDYSIXLEKIAQXAFVRHLINKXTRQRY (Aib at 2, 13, 20, 30; Lys29 epsilon-amino acylated with C18DA-gGlu-gGlu-gGlu-gGlu-gGlu-gGlu-eLys; C-terminal amide) [Compound 24]	26.2 nM	–	1 nM	–
Y[Aib]EGTFTSDYSI[Aib]LEKQAQ[Aib]EFVRHLINK([εLys-γGlu-γGlu-γGlu-γGlu-γGlu-γGlu-γGlu-C18 diacid])LTRQRY-NH2 [Compound 32]	6.5 nM	17.1 nM	0.5 nM	44.6 nM

More lines, now with the values ahead:

EC50, CreLuc reporter, 100% hP (human GIP receptor)	EC50, CreLuc reporter, 0.5% hP [1]	EC50, CreLuc reporter, 0.5% hP (human GIP receptor)	EC50, CreLuc reporter, 100% hP [1]	Binder
–	–	1.7 nM	–	YXEGTFTSDYSIXLEKQAQXAFVRHLLNKXTRQRY (Aib at 2, 13, 20, 30; Lys29 epsilon-amino acylated with C20DA-gGlu-gGlu-gGlu-gGlu-gGlu-gGlu-eLys; C-terminal amide) [Compound 80]
–	–	0.3 nM	–	YXEGTFTSDYSIXLEEQAQXAFVRHLINKXTRQRY (Aib at 2, 13, 20, 30; Lys29 epsilon-amino acylated with C18DA-gGlu-gGlu-gGlu-gGlu-gGlu-gGlu-eLys; C-terminal amide) [Compound 71]
